This passage reports protein stability index results from the supplement of paper PMC10724198.

± gives the standard deviation of the averaged measurements.
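Also: PSI is a weighted mean of sequencing reads over stability bins, variants kept only with over 10 reads, mCherry proximal and sfGFP distal, peptide attached via GGGS linker.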

The test system of this series is Saccharomyces cerevisiae. The series is described as follows: protein stability index of tFT-peptide fusion (C-terminal peptide) (PSI (0-1 scale)); higher = more stable (slower turnover). The conditions noted are these: genetic background: wild type; temperature: 30 C.
As for QKSGELVKNVRI, the protein stability index worked out at 0.673 ± 0.035. As for QKVNKDTRTSEF, the protein stability index is 0.709 ± 0.014. QLNGTVTRPGDF yielded a protein stability index of 0.7 ± 0.036. With QLRPLSPLPPQP the figure was 0.738 ± 0.029. Next, QLSLSTPAGRLI: 0.6886 ± 0.0068; QLSRHCYQPSGG: 0.671 ± 0.0073.

On to QMKRPSCKGTCD, for which the protein stability index was 0.679 ± 0.044. With QNEVWDACVGRC the figure was 0.702 ± 0.017. Next, QNGNRPCCEKAW: 0.681 ± 0.021. Next, QNIRTELTSPRV: 0.6596 ± 0.0016; QNKNPNRTEKSK: 0.701 ± 0.056; QNRKELVERPKR: 0.702 ± 0.017. The sequence QNTTESANWSIT showed a protein stability index of 0.696 ± 0.052. For QPALGNTNKYKN, the protein stability index was 0.676 ± 0.049. Sequence QPLPLPSPPPPA displayed a protein stability index of 0.741 ± 0.058. With QPPSPSLFFPRV the figure was 0.704 ± 0.016; with QPSDTSHPHQPS, 0.692 ± 0.028.

QPYRQAKNQRLP yielded a protein stability index of 0.728 ± 0.02. With QQRHITHRKIRI the figure was 0.6595 ± 0.0048.

QRARDSLVQTRH returned a protein stability index of 0.681 ± 0.032. In the case of QRGGTWGALWEG, the protein stability index worked out at 0.671 ± 0.02. Next, QRMKHQKVTSNP: 0.732 ± 0.06; QRRARVSDISVY: 0.634 ± 0.012. Turning to QSAPWPSPLSFS, the protein stability index was found to be 0.718 ± 0.019. On to QSNEHVRQSETS, for which the protein stability index was determined as 0.682 ± 0.03.

QSNQEETRQDGT had a protein stability index of 0.687 ± 0.0084. With QSPPILVPSSDV the figure was 0.686 ± 0.067. QSRERDGSIRNP displayed a protein stability index of 0.644 ± 0.021. For the sequence QTKSLLTPLLNL, the protein stability index came out at 0.65 ± 0.018. With QTPNRTPIRPPP the figure was 0.716 ± 0.0093. QTSASSAALLRP: the protein stability index was found to be 0.622 ± 0.042.

In the case of QTVSISGVPDGF, the protein stability index came out at 0.6669 ± 0.001. For QVAIEKTTHVQE, the protein stability index was 0.637 ± 0.13. With QVFVRRSSPRVL the figure was 0.666 ± 0.014; with QVRTWGGCWGRG, 0.674 ± 0.0083; with QVVLCCAIDKNT, 0.708 ± 0.082. Next, QWSNSRPVGLTG: 0.676 ± 0.017. Next, QYKKKEKKQNRT: 0.624 ± 0.1; QYSDRQGGRATD: 0.708 ± 0.015; QYSFFLRSPEVF: 0.512 ± 0.038.

RAALEAPGCIQV: the protein stability index is 0.73316 ± 3e-05. RAIGSRIIIWGL gave a protein stability index of 0.564 ± 0.011. With RALALVHRQRVG the figure was 0.648 ± 0.096.

RALPLLPLPRLS had a protein stability index of 0.66 ± 0.024. With RALPSPRSPLSI the figure was 0.616 ± 0.041; with RAPDFYPTHPLA, 0.701 ± 0.057; with RAPRSPPPPALA, 0.77114 ± 0.00071. With RARRYNRQSTPT the figure was 0.702 ± 0.023; with RASPFPAMSAQV, 0.684 ± 0.023. RATTNKRIRVEL displayed a protein stability index of 0.704 ± 0.011. Next, RCAQKSMALLSD: 0.68 ± 0.0097.

RCAWSEVFEGCG displayed a protein stability index of 0.71 ± 0.021.

As to RCEGNGKRASTE, the protein stability index came to 0.632 ± 0.031. For RCGRGVAAEWLS, the protein stability index was found to be 0.668 ± 0.06. With RCLGSTCRFFTF the figure was 0.7 ± 0.065; with RCNKETKNKDVL, 0.7348 ± 0.0054. RCRCPHFLCRFS yielded a protein stability index of 0.6165 ± 0.0049. As to RCRKVSTISRFK, the protein stability index came to 0.7053 ± 0.002. As to RCSFSYLPVIQV, the protein stability index is 0.582 ± 0.006. The sequence RCSKFRKFFKHR had a protein stability index of 0.6565 ± 0.0031.

RCSNWFVGFCPF returned a protein stability index of 0.733 ± 0.062. Next, RCTQCFSPFSTD: 0.7221 ± 0.0052. Next, RCVFGFGGVVVV: 0.622 ± 0.073; RCWEWADWPRDG: 0.764 ± 0.029; RCYTLFLGRSRV: 0.68037 ± 0.00022. Next, RDGIMTDDKRIS: 0.707 ± 0.035; RDILFIGINIYK: 0.585 ± 0.049; RDLRGGIADSAG: 0.684 ± 0.086. As to RDMCVFSGGSGV, the protein stability index was determined as 0.68 ± 0.048. Consider RDPERYAQLTAP, for which the protein stability index worked out at 0.776 ± 0.0086. Next, RDRAPLLNLACL: 0.689 ± 0.074; RDRTVGLLEGTA: 0.695 ± 0.085.

RDSDSSLRHNSH displayed a protein stability index of 0.682 ± 0.061. Next, REAGGSQVKRRL: 0.671 ± 0.12; REDSGGVNWGRC: 0.692 ± 0.039. With REEMASGGCIIR the figure was 0.6845 ± 0.0039; with REERSRQSLVKW, 0.675 ± 0.06. With REGYGVGRERGD the figure was 0.649 ± 0.017; with REKEKMRVVGMT, 0.746 ± 0.036; with REKKDGKLSTTR, 0.761 ± 0.045.
